Experimental findings from paper PMC5861432 are described below.

Series [1] addresses T1, IRF3(6D) (human, UniProt Q14653 1-427, S386D;S396D;S398D;S402D;T404D;S405D).
T1 sequence: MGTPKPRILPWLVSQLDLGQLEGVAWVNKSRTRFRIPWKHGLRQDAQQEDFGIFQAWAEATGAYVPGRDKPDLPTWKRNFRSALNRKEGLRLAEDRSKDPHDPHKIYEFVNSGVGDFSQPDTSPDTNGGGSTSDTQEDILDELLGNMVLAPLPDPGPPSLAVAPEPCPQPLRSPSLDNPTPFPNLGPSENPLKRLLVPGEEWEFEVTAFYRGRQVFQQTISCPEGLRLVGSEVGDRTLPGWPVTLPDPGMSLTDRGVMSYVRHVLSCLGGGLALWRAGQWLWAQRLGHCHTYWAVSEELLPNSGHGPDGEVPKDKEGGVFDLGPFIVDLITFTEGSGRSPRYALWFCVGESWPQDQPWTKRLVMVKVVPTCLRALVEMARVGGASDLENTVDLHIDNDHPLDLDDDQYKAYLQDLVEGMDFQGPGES
In words: EMSA. For orientation: A gel shift assay detects complexes by their altered migration in electrophoresis.

For another series, the target named is IRF5(4D) (human, UniProt Q13568-2 1-514, S451D;S453D;S456D;S462D). Briefly: PBM.
The target in series [2] is T1, IRF3(6D). In words: PBM.

B1: proximal dimer (2-bp spacer) (dsDNA)
DNA 1: GCACCGCTAACCGAAACCGAAACTGTGC
DNA 2: GCACAGTTTCGGTTTCGGTTAGCGGTGC
For the molecule B1, in the series with IRF3(6D) [1], the binding result was “binds”.

B2: C-2 PBM probe (dsDNA)
DNA 1: GCCTAGCACTAACCGAAACCGAAACCTAAGTGCTAGGTCTTGATTCGCTTGACGCTGCTG
DNA 2: CAGCAGCGTCAAGCGAATCAAGACCTAGCACTTAGGTTTCGGTTTCGGTTAGTGCTAGGC
On to B2, for which the binding result with IRF5(4D) and in the series with IRF3(6D) [2] was “binds” throughout.
